Assay results: article PMC6053543

Molecular target: β1 wild-type cytoplasmic tail peptide
Assay: pull-down

recombinant full length talin-1, P26039 1-2541
fold more talin pulled down with equal molar FL-Kank2 than with GST only: 5 fold | fold more talin pulled down with equal molar GST-KN than with GST only: 5 fold
